Experimental data as given in patent US20050221443A1 (published 2005).

Target: T1, RANK-L (UniProt O14788 140-317, limits assumed)
T1 sequence (looked up): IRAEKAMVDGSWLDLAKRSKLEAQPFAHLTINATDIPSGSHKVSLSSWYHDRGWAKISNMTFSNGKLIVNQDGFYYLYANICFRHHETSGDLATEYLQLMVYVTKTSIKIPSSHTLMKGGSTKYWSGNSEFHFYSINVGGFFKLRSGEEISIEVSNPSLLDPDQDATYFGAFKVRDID
Experiment: polarization anisotropy at steady state, 1 ug/mL Alexa568 TNF with increasing concentrations of RANK-L, 1 hour at 37 C
Method: This assay necessitated a fluorescently labeled TNF trimer that at limiting concentrations could be used as a tracer to monitor exchange. We generated a TNF variant (R31C/C69V/C101A) and specifically labeled it with Alexa568 maleimide at the R31 position. Polarization anisotropy measures heterotrimer formation at steady-state. We mixed 1 ug/mL Alexa568 TNF either alone (open circles) or with increasing concentrations of RANK-L (open squares), PEG20k-A145R/Y87H TNF, PEG5k-A145R/Y87H, or A145R/Y87H in PBS/0.02% igepal for 1 hour at 37 C. These reactions were placed into the spectroscopic instrument-and the steady-state anisotropy was measured. […] (FIG. 8B) Addition of surfactant excipients catalyzes the exchange between TNF homotrimers. We mixed together 1 ug/mL Alexa568 TNF alone (open circles) or with 100 ug/mL PEG-5k A145R/I97T TNF (closed circles) in a 96-well assay format and began anisotropy measurements. After ˜2000 seconds the instrument was paused and 0.5% polysorbate-20 or polysorbate-80 were added and the measurement was resumed.

- binding result: no binding
B1: Alexa568 TNF (TNF variant R31C/C69V/C101A labeled with Alexa568 maleimide) (ligand, human, UniProt P01375 77-233, looked up)
chain: VRSSSRTPSDKPVAHVVANPQAEGQLQWLNCRANALLANGVELRDNQLVVPSEGLYLIYSQVLFKGQGVPSTHVLLTHTISRIAVSYQTKVNLLSAIKSPAQRETPEGAEAKPWYEPIYLGGVFQLEKGDRLSAEINRPDYLDFAESGQVYFGIIAL
modifications: Alexa568 maleimide at the R31 position (Cys of R31C)
notes: extracellular domain; Fluorescent tracer homotrimer
